In article PMC12661439:

Columns and labels:
[1] = biological target: HaloTag-AtCRY2(D387A) (Arabidopsis thaliana); assay: photon counting histogram (PCH) analysis (fluorescence fluctuation spectroscopy); light state: the same living HEK293T cells measured at once after 5 min of blue light (about 6 mW/cm^2 at the sample plane, 450-490 nm), one 30 s measurement a cell; HaloTag-JF646 fusions; brightness relative to the monomeric standard, corrected for 70% labelling; oligomer percent from a monomer-dimer (VfAuLOV) or monomer-tetramer (AtCRY2) model
[2] = biological target: HaloTag-AtCRY2(D387A) (Arabidopsis thaliana); assay: photon counting histogram (PCH) analysis (fluorescence fluctuation spectroscopy); dark state; HaloTag fusions labelled with 200 nM JF646 in living HEK293T cells, UBC promoter, protomer about 50-1,700 nM; single-point measurement of 30 s, 20 kHz binning, 15 ns dead time, ambient temperature (22-23°C); brightness relative to the monomeric HaloTag standard and corrected for 70% labelling; population average; oligomer percent from a monomer-dimer (VfAuLOV) or monomer-tetramer (AtCRY2) model
[3] = biological target: HaloTag-AtCRY2(R439L) (Arabidopsis thaliana); assay: photon counting histogram (PCH) analysis (fluorescence fluctuation spectroscopy); light state: the same living HEK293T cells measured at once after 5 min of blue light (about 6 mW/cm^2 at the sample plane, 450-490 nm), one 30 s measurement a cell; HaloTag-JF646 fusions; brightness relative to the monomeric standard, corrected for 70% labelling; oligomer percent from a monomer-dimer (VfAuLOV) or monomer-tetramer (AtCRY2) model
[4] = biological target: HaloTag-AtCRY2(R439L) (Arabidopsis thaliana); assay: photon counting histogram (PCH) analysis (fluorescence fluctuation spectroscopy); dark state; HaloTag fusions labelled with 200 nM JF646 in living HEK293T cells, UBC promoter, protomer about 50-1,700 nM; single-point measurement of 30 s, 20 kHz binning, 15 ns dead time, ambient temperature (22-23°C); brightness relative to the monomeric HaloTag standard and corrected for 70% labelling; population average; oligomer percent from a monomer-dimer (VfAuLOV) or monomer-tetramer (AtCRY2) model
[5] = biological target: HaloTag-AtCRY2(W374A) (Arabidopsis thaliana); assay: photon counting histogram (PCH) analysis (fluorescence fluctuation spectroscopy); light state: the same living HEK293T cells measured at once after 5 min of blue light (about 6 mW/cm^2 at the sample plane, 450-490 nm), one 30 s measurement a cell; HaloTag-JF646 fusions; brightness relative to the monomeric standard, corrected for 70% labelling; oligomer percent from a monomer-dimer (VfAuLOV) or monomer-tetramer (AtCRY2) model
[6] = biological target: HaloTag-AtCRY2(W374A) (Arabidopsis thaliana); assay: photon counting histogram (PCH) analysis (fluorescence fluctuation spectroscopy); dark state; HaloTag fusions labelled with 200 nM JF646 in living HEK293T cells, UBC promoter, protomer about 50-1,700 nM; single-point measurement of 30 s, 20 kHz binning, 15 ns dead time, ambient temperature (22-23°C); brightness relative to the monomeric HaloTag standard and corrected for 70% labelling; population average; oligomer percent from a monomer-dimer (VfAuLOV) or monomer-tetramer (AtCRY2) model
[7] = biological target: HaloTag-AtCRY2: photolyase homology region of cryptochrome 2 from Arabidopsis thaliana fused to HaloTag (Arabidopsis thaliana); assay: photon counting histogram (PCH) analysis (fluorescence fluctuation spectroscopy); dissociation kinetics in living HEK293T cells: relative brightness measured at times after a 5-min exposure to blue light was turned off, each measurement 30 s; averaged curves fitted with a single-exponential decay; half-life = ln2 x lifetime
[8] = biological target: HaloTag-AtCRY2: photolyase homology region of cryptochrome 2 from Arabidopsis thaliana fused to HaloTag (Arabidopsis thaliana); assay: photon counting histogram (PCH) analysis (fluorescence fluctuation spectroscopy); light state: the same living HEK293T cells measured at once after 5 min of blue light (about 6 mW/cm^2 at the sample plane, 450-490 nm), one 30 s measurement a cell; HaloTag-JF646 fusions; brightness relative to the monomeric standard, corrected for 70% labelling; oligomer percent from a monomer-dimer (VfAuLOV) or monomer-tetramer (AtCRY2) model
[9] = biological target: HaloTag-AtCRY2: photolyase homology region of cryptochrome 2 from Arabidopsis thaliana fused to HaloTag (Arabidopsis thaliana); assay: photon counting histogram (PCH) analysis (fluorescence fluctuation spectroscopy); dark state; HaloTag fusions labelled with 200 nM JF646 in living HEK293T cells, UBC promoter, protomer about 50-1,700 nM; single-point measurement of 30 s, 20 kHz binning, 15 ns dead time, ambient temperature (22-23°C); brightness relative to the monomeric HaloTag standard and corrected for 70% labelling; population average; oligomer percent from a monomer-dimer (VfAuLOV) or monomer-tetramer (AtCRY2) model
[10] = biological target: HaloTag-HsCRY2: human CRY2 photolyase homology region fused to HaloTag (human); assay: photon counting histogram (PCH) analysis (fluorescence fluctuation spectroscopy); light state: the same living HEK293T cells measured at once after 5 min of blue light (about 6 mW/cm^2 at the sample plane, 450-490 nm), one 30 s measurement a cell; HaloTag-JF646 fusions; brightness relative to the monomeric standard, corrected for 70% labelling; oligomer percent from a monomer-dimer (VfAuLOV) or monomer-tetramer (AtCRY2) model
[11] = biological target: HaloTag-HsCRY2: human CRY2 photolyase homology region fused to HaloTag (human); assay: photon counting histogram (PCH) analysis (fluorescence fluctuation spectroscopy); dark state; HaloTag fusions labelled with 200 nM JF646 in living HEK293T cells, UBC promoter, protomer about 50-1,700 nM; single-point measurement of 30 s, 20 kHz binning, 15 ns dead time, ambient temperature (22-23°C); brightness relative to the monomeric HaloTag standard and corrected for 70% labelling; population average; oligomer percent from a monomer-dimer (VfAuLOV) or monomer-tetramer (AtCRY2) model
[12] = biological target: HaloTag-VfAuLOV: light-oxygen-voltage (LOV) domain of Vaucheria frigida Aurochrome1 fused to HaloTag (Vaucheria frigida); assay: photon counting histogram (PCH) analysis (fluorescence fluctuation spectroscopy); dissociation kinetics in living HEK293T cells: relative brightness measured at times after a 5-min exposure to blue light was turned off, each measurement 30 s; averaged curves fitted with a single-exponential decay; half-life = ln2 x lifetime
[13] = biological target: HaloTag-VfAuLOV: light-oxygen-voltage (LOV) domain of Vaucheria frigida Aurochrome1 fused to HaloTag (Vaucheria frigida); assay: photon counting histogram (PCH) analysis (fluorescence fluctuation spectroscopy); light state: the same living HEK293T cells measured at once after 5 min of blue light (about 6 mW/cm^2 at the sample plane, 450-490 nm), one 30 s measurement a cell; HaloTag-JF646 fusions; brightness relative to the monomeric standard, corrected for 70% labelling; oligomer percent from a monomer-dimer (VfAuLOV) or monomer-tetramer (AtCRY2) model
[14] = biological target: HaloTag-VfAuLOV: light-oxygen-voltage (LOV) domain of Vaucheria frigida Aurochrome1 fused to HaloTag (Vaucheria frigida); assay: photon counting histogram (PCH) analysis (fluorescence fluctuation spectroscopy); dark state; HaloTag fusions labelled with 200 nM JF646 in living HEK293T cells, UBC promoter, protomer about 50-1,700 nM; single-point measurement of 30 s, 20 kHz binning, 15 ns dead time, ambient temperature (22-23°C); brightness relative to the monomeric HaloTag standard and corrected for 70% labelling; population average; oligomer percent from a monomer-dimer (VfAuLOV) or monomer-tetramer (AtCRY2) model
[15] = biological target: HaloTag-bZip-VfAuLOV: VfAuLOV with the basic residues and leucine zipper domain of Vaucheria frigida Aureochrome1, fused to HaloTag (Vaucheria frigida); assay: photon counting histogram (PCH) analysis (fluorescence fluctuation spectroscopy); dissociation kinetics in living HEK293T cells: relative brightness measured at times after a 5-min exposure to blue light was turned off, each measurement 30 s; averaged curves fitted with a single-exponential decay; half-life = ln2 x lifetime
[16] = biological target: HaloTag-bZip-VfAuLOV: VfAuLOV with the basic residues and leucine zipper domain of Vaucheria frigida Aureochrome1, fused to HaloTag (Vaucheria frigida); assay: photon counting histogram (PCH) analysis (fluorescence fluctuation spectroscopy); light state: the same living HEK293T cells measured at once after 5 min of blue light (about 6 mW/cm^2 at the sample plane, 450-490 nm), one 30 s measurement a cell; HaloTag-JF646 fusions; brightness relative to the monomeric standard, corrected for 70% labelling; oligomer percent from a monomer-dimer (VfAuLOV) or monomer-tetramer (AtCRY2) model
[17] = biological target: HaloTag-bZip-VfAuLOV: VfAuLOV with the basic residues and leucine zipper domain of Vaucheria frigida Aureochrome1, fused to HaloTag (Vaucheria frigida); assay: photon counting histogram (PCH) analysis (fluorescence fluctuation spectroscopy); dark state; HaloTag fusions labelled with 200 nM JF646 in living HEK293T cells, UBC promoter, protomer about 50-1,700 nM; single-point measurement of 30 s, 20 kHz binning, 15 ns dead time, ambient temperature (22-23°C); brightness relative to the monomeric HaloTag standard and corrected for 70% labelling; population average; oligomer percent from a monomer-dimer (VfAuLOV) or monomer-tetramer (AtCRY2) model

HaloTag-AtCRY2(D387A) (domain or fragment)
oligomer percentage (tetramer fraction, monomer-tetramer model) [1]: < 1%
relative brightness (corrected; monomer = 1, tetramer = 4) [1]: 1.1
oligomer percentage (tetramer fraction, monomer-tetramer model) [2]: < 1%
relative brightness (corrected; monomer = 1, tetramer = 4) [2]: 1.1

HaloTag-AtCRY2(R439L) (domain or fragment)
oligomer percentage (tetramer fraction, monomer-tetramer model) [3]: < 1%
relative brightness (corrected; monomer = 1, tetramer = 4) [3]: 1.1
oligomer percentage (tetramer fraction, monomer-tetramer model) [4]: < 1%
relative brightness (corrected; monomer = 1, tetramer = 4) [4]: 1.1

HaloTag-AtCRY2(W374A) (domain or fragment)
oligomer percentage (tetramer fraction, monomer-tetramer model) [5]: 20%
relative brightness (corrected; monomer = 1, tetramer = 4) [5]: 2.5
oligomer percentage (tetramer fraction, monomer-tetramer model) [6]: 5%
relative brightness (corrected; monomer = 1, tetramer = 4) [6]: 1.5

HaloTag-AtCRY2: photolyase homology region of cryptochrome 2 from Arabidopsis thaliana fused to HaloTag (domain or fragment)
dissociation half-life [7]: 4.29 min
oligomer percentage (tetramer fraction, monomer-tetramer model) [8]: 27%
relative brightness (corrected; monomer = 1, tetramer = 4) [8]: 2.8
stoichiometry N [8]: 4
oligomer percentage (tetramer fraction, monomer-tetramer model) [9]: < 1%
oligomer percentage (tetramer fraction, monomer-tetramer model; only data above 500 nM) [9]: 1.8%
relative brightness (corrected; monomer = 1, tetramer = 4) [9]: 1.1
relative brightness (corrected; only data above 500 nM) [9]: 1.2

HaloTag-HsCRY2: human CRY2 photolyase homology region fused to HaloTag (domain or fragment)
relative brightness (corrected; monomer = 1) [10]: 1.3
relative brightness (corrected; monomer = 1) [11]: 1.2

HaloTag-VfAuLOV: light-oxygen-voltage (LOV) domain of Vaucheria frigida Aurochrome1 fused to HaloTag (domain or fragment)
dissociation half-life [12]: 8.73 min
oligomer percentage (dimer fraction, monomer-dimer model) [13]: 100%
relative brightness (corrected; monomer = 1, dimer = 2) [13]: 2
stoichiometry N [13]: 2
oligomer percentage (dimer fraction, monomer-dimer model) [14]: 18%
relative brightness (corrected; monomer = 1, dimer = 2) [14]: 1.3

HaloTag-bZip-VfAuLOV: VfAuLOV with the basic residues and leucine zipper domain of Vaucheria frigida Aureochrome1, fused to HaloTag (domain or fragment)
dissociation half-life [15]: 6.89 min
oligomer percentage (dimer fraction, monomer-dimer model) [16]: 67%
relative brightness (corrected; monomer = 1, dimer = 2) [16]: 1.8
stoichiometry N [16]: 2
oligomer percentage (dimer fraction, monomer-dimer model) [17]: 33%
relative brightness (corrected; monomer = 1, dimer = 2) [17]: 1.5
